Data reported in patent US20080207488A1, “Method for Detecting Peptides Comprising a Cross-B Structure” (priority 2005, published 2008).

What was measured:
LRP cl-IV = target: T1, LRP cl-IV (Homo sapiens, UniProt Q07954); assay: ELISA, binding of LRP cluster IV to misfolded proteins; conditions: 5 μg/ml coated protein
T1 construct: Cluster IV of the low-density lipoprotein (LDL) receptor-related protein (LRP cl-IV) was cloned from complete cDNA of THP1 cells; made in house; host or cells: HEK293E/S cells; culture supernatant used without purification
T1 sequence (Q07954 3332-3778 limits assumed): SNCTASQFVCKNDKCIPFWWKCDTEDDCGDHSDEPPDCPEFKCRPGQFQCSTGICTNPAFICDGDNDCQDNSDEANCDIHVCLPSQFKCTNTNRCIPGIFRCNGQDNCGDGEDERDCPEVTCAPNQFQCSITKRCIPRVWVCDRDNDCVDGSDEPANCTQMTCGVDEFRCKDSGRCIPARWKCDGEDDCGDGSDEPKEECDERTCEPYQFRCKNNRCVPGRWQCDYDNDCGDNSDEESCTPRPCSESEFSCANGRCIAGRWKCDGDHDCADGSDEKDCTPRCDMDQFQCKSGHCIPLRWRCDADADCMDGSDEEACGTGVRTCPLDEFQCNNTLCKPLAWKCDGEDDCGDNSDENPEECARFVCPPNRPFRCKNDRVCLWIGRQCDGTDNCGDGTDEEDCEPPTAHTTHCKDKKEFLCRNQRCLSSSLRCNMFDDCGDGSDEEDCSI
Method: Binding of LRP cl-IV to misfolded protein was determined using an enzyme linked immuno sorbent assay (ELISA) set-up. For this purpose 50 μl of a 5 μg/ml solution of BSA, BSA-AGE, Hb or Hb-AGE or coat buffer (for negative control) was coated for 1 h with motion. Proteins were diluted in coat buffer (100 mM NaHCO3 pH 9.6). The BSA and Hb controls were prepared freshly by dissolving proteins at 1 mg/ml in PBS by rolling for 10 minutes on a roller bank at room temperature, 10 minutes incubation at 37° C. followed by again 10 minutes incubation at the roller bank. Coat controls were performed with anti-glycated protein antibody 4B5, anti-albumin antibody or anti Hb antibody. After coating the plates were washed twice with PBS/0.1% Tween-20 (v/v) and blocked with 300 μl/well blocking reagent (Roche Diagnostics, Almere, The Netherlands) for 1 h at room temperature with motion. […] After five washes with wash buffer binding of antibody was assessed with a secondary antibody. […] After 5 washes with wash buffer, binding of anti-FLAG antibody and secondary antibodies was assessed with 100 μl/well TMB substrate (ready to use from Tebu Bio). […] After ˜2 minutes absorbance was read at 450 nm.

[1] = ThT fluorescence of CpG-ODN-protein mixtures; assay type: physicochemical; conditions: for increase in ThT fluorescence / ThT fluorescence enhancement: 1 mg ml^−1 protein; for increase in ThT fluorescence: 30 min. at room temperature (FIG. 4D, E); for ThT fluorescence enhancement: overnight
Method: Fluorescence of ThT-protein/peptide adducts was measured as follows. […] Fluorescence was measured at 485 nm upon excitation at 435 nm. Background signals from buffer, buffer with ThT and protein/peptide solution without ThT were subtracted from corresponding measurements with protein solution incubated with ThT. […] Fluorescence was measured in triplicate on a Hitachi F-4500 fluorescence spectrophotometer (Ltd., Tokyo, Japan).
Enhancement of ThT fluorescence was measured similarly as described above. […]

| binding of LRP cl-IV (LRP cl-IV) | Substance | increased ThT fluorescence ([1]; 1 mg ml^−1 protein exposed to 21.4 μg ml^−1 CPG-ODN (FIG. 4F)) | increase in ThT fluorescence ([1]; 10.4 μg ml^−1 CPG-ODN) | ThT fluorescence enhancement ([1]; 10.7 μg ml^−1 CPG-ODN) | ThT fluorescence enhancement ([1]; 21.4 μg ml^−1 CPG-ODN) | increase in ThT fluorescence ([1]; 21.7 μg ml^−1 CPG-ODN) | ThT fluorescence enhancement ([1]; 42.8 μg ml^−1 CPG-ODN) |
| --- | --- | --- | --- | --- | --- | --- | --- |
| binds specifically | albumin-AGE: advanced glycation end-product modified bovine serum albumin |  |  |  |  |  |  |
|  | lysozyme: chicken egg-white lysozyme | no effect | approximately 8 times | 1.1 factor | 1.2 factor | ~7 times | 1.4 factor |
